# Data published in US20220175781A1, “CD40L COMPOSITIONS AND METHODS FOR TUNABLE REGULATION” (Obsidian Therapeutics, Inc., priority 2019, published 2022).
# Experiments:
# T cells (CD4+ and CD8+) = test: Regulation of CD40L in T cells by different drug responsive domains; type: cell-based
# Jurkat cells = test: Linker length, ER regulated CD40L, % CD40L positive Jurkat cells; type: cell-based
# Description: Jurkat cells were lentivirally transduced and 24 hours after transduction were treated with DMSO or 1 μM Bazedoxifene for another 24 hours and analyzed by flow cytometry for surface expression of CD40L. […] In Table 33, SR indicates stabilization ratio.
# HEK293T cells = test: Linker length, ER regulated CD40L surface expression, transfected HEK293T cells; type: cell-based, human; settings: 1 μM Bazedoxifene 24 hours
# Description: To explore the effect of linker length in the DD mediated regulation of CD40L, constructs with varying linker lengths were generated. OT-001966, OT-001965, OT-001967, OT-001666 constructs were generated and are presented here in decreasing linker length order. HEK293T cells were transiently transfected with these constructs and treated with 1 μM Bazedoxifene for 24 hours. Median fluorescence intensity, an indicator of surface expression of CD40L, was analyzed by flow cytometry.
# [1] = system: T cells (CD4 and CD8 positive); test: Bazedoxifene dose response, CD40L MFI in CD4 and CD8 positive T cells (day 4, freeze/thaw, restimulation); type: cell-based
# Description: Dose response with Bazedoxifene in T cells were conducted for OT-001966, OT-001967, OT-001666. Expression of CD40L was measured at (a) day 4 after transduction, (b) after freezing and thawing the cells or (c) after freezing and thawing the cells followed by restimulation with CD3/CD28 beads. The CD40L MFI (median fluorescence intensity) within CD4 and CD8 positive subpopulations is shown in Table 34 and Table 35 respectively.
molecule,measurement,setting,value
"OT-001966: ER regulated CD40L construct, longest linker (protein) MSLALSLTADQMVSALLDAEPPILYSEYDPTRPFSEASMMGLLTNLADRELVHMINWAKRVPGFVDLTLHDQVHLLECAWMEILMIGLVWRSMEHPGKLLFAPNLLLDRDQGKCVEGGVEIFDMLLATSSRFRMMNLQGEEFVCLKSIILLNSGVYTFLSSTLKSLEEKDHIHRVLDKITDTLIHLMAKAGLTLQQQHQRLAQLLLILSHIRHMSNKRMEHLYSMKCKNVVPLSDLLLEMLDAHRLGGSGGGSGGGSGMIETYNQTSPRSAATGLPISMKIFMYLLTVFLITQMIGSALFAVYLHRRLDKIEDERNLHEDFVFMKTIQRCNTGERSLSLLNCEEIKSQFEGFVKDIMLNKEETKKENSFEMQKGDQNPQIAAHVISEASSKTTSVLQWAEKGYYTMSNNLVTLENGKQLTVKRQGLYYIYAQVTFCSNREASSQAPFIASLCLKSPGRFERILLRAANTHSSAKPCGQQSIHLGGVFELQPGASVFVNVTDPSQVSHGTGFTSFGLLKL",CD40L positive,"T cells (CD4+ and CD8+); All Cells, 1 uM Baz",58.1%
same,MFI,"T cells (CD4+ and CD8+); All Cells, 1 uM Baz",490
same,CD40L positive,"T cells (CD4+ and CD8+); All Cells, DMSO",14%
same,MFI,"T cells (CD4+ and CD8+); All Cells, DMSO",174
same,CD40L positive,"T cells (CD4+ and CD8+); CD4+, 1 uM Baz",62.8%
same,MFI,"T cells (CD4+ and CD8+); CD4+, 1 uM Baz",543
same,CD40L positive,"T cells (CD4+ and CD8+); CD4+, DMSO",17%
same,MFI,"T cells (CD4+ and CD8+); CD4+, DMSO",197
same,CD40L positive,"T cells (CD4+ and CD8+); CD8+, 1 uM Baz",42.3%
same,MFI,"T cells (CD4+ and CD8+); CD8+, 1 uM Baz",339
same,CD40L positive,"T cells (CD4+ and CD8+); CD8+, DMSO",2.2%
same,MFI,"T cells (CD4+ and CD8+); CD8+, DMSO",95.6
same,Percent of Jurkat cells expressing CD40L,Jurkat cells; 1 μM Bazedoxifene,46%
same,SR,"Jurkat cells; 1 μM Bazedoxifene versus DMSO, % CD40L positive Jurkat cells",15.3
same,Percent of Jurkat cells expressing CD40L,Jurkat cells; DMSO,3%
same,"percentage of cells with high CD40L surface expression, ranking of constructs","Jurkat cells; Jurkat cells, 1 μM Bazedoxifene 24 hours",highest percentage of cells with high CD40L surface expression
same,"percentage of cells with high CD40L surface expression, ranking of constructs",HEK293T cells,highest percentage of cells with high CD40L surface expression
same,CD40L expression (MFI),"[1]; CD4+ cells, Day 4, Bazedoxifene 0.01 nM",415
same,CD40L expression (MFI),"[1]; CD4+ cells, Day 4, Bazedoxifene 0.1 nM",499
same,CD40L expression (MFI),"[1]; CD4+ cells, Day 4, Bazedoxifene 1 nM",545
same,CD40L expression (MFI),"[1]; CD4+ cells, Day 4, Bazedoxifene 10 nM",616
same,CD40L expression (MFI),"[1]; CD4+ cells, Day 4, Bazedoxifene 100 nM",1028
same,CD40L expression (MFI),"[1]; CD4+ cells, Day 4, Bazedoxifene 1000 nM",1551
same,CD40L expression (MFI),"[1]; CD4+ cells, Day 4, Bazedoxifene 10000 nM",1095
same,CD40L expression (MFI),"[1]; CD4+ cells, Post Thaw, Bazedoxifene 0.01 nM",183
same,CD40L expression (MFI),"[1]; CD4+ cells, Post Thaw, Bazedoxifene 0.1 nM",185
same,CD40L expression (MFI),"[1]; CD4+ cells, Post Thaw, Bazedoxifene 1 nM",193
same,CD40L expression (MFI),"[1]; CD4+ cells, Post Thaw, Bazedoxifene 10 nM",213
same,CD40L expression (MFI),"[1]; CD4+ cells, Post Thaw, Bazedoxifene 100 nM",258
same,CD40L expression (MFI),"[1]; CD4+ cells, Post Thaw, Bazedoxifene 1000 nM",292
same,CD40L expression (MFI),"[1]; CD4+ cells, Post Thaw, Bazedoxifene 10000 nM",577
same,CD40L expression (MFI),"[1]; CD4+ cells, Restim, Bazedoxifene 0.01 nM",340
same,CD40L expression (MFI),"[1]; CD4+ cells, Restim, Bazedoxifene 0.1 nM",340
same,CD40L expression (MFI),"[1]; CD4+ cells, Restim, Bazedoxifene 1 nM",364
same,CD40L expression (MFI),"[1]; CD4+ cells, Restim, Bazedoxifene 10 nM",472
same,CD40L expression (MFI),"[1]; CD4+ cells, Restim, Bazedoxifene 100 nM",561
same,CD40L expression (MFI),"[1]; CD4+ cells, Restim, Bazedoxifene 1000 nM",741
same,CD40L expression (MFI),"[1]; CD4+ cells, Restim, Bazedoxifene 10000 nM",447
same,CD40L expression (MFI),"[1]; CD8+ cells, Day 4, Bazedoxifene 0.01 nM",168
same,CD40L expression (MFI),"[1]; CD8+ cells, Day 4, Bazedoxifene 0.1 nM",176
same,CD40L expression (MFI),"[1]; CD8+ cells, Day 4, Bazedoxifene 1 nM",190
same,CD40L expression (MFI),"[1]; CD8+ cells, Day 4, Bazedoxifene 10 nM",212
same,CD40L expression (MFI),"[1]; CD8+ cells, Day 4, Bazedoxifene 100 nM",442
same,CD40L expression (MFI),"[1]; CD8+ cells, Day 4, Bazedoxifene 1000 nM",669
same,CD40L expression (MFI),"[1]; CD8+ cells, Day 4, Bazedoxifene 10000 nM",438
same,CD40L expression (MFI),"[1]; CD8+ cells, Post Thaw, Bazedoxifene 0.01 nM",113
same,CD40L expression (MFI),"[1]; CD8+ cells, Post Thaw, Bazedoxifene 0.1 nM",117
same,CD40L expression (MFI),"[1]; CD8+ cells, Post Thaw, Bazedoxifene 1 nM",121
same,CD40L expression (MFI),"[1]; CD8+ cells, Post Thaw, Bazedoxifene 10 nM",148
same,CD40L expression (MFI),"[1]; CD8+ cells, Post Thaw, Bazedoxifene 100 nM",204
same,CD40L expression (MFI),"[1]; CD8+ cells, Post Thaw, Bazedoxifene 1000 nM",230
same,CD40L expression (MFI),"[1]; CD8+ cells, Post Thaw, Bazedoxifene 10000 nM",375
same,CD40L expression (MFI),"[1]; CD8+ cells, Restim, Bazedoxifene 0.01 nM",340
same,CD40L expression (MFI),"[1]; CD8+ cells, Restim, Bazedoxifene 0.1 nM",340
same,CD40L expression (MFI),"[1]; CD8+ cells, Restim, Bazedoxifene 1 nM",364
same,CD40L expression (MFI),"[1]; CD8+ cells, Restim, Bazedoxifene 10 nM",472
same,CD40L expression (MFI),"[1]; CD8+ cells, Restim, Bazedoxifene 100 nM",561
same,CD40L expression (MFI),"[1]; CD8+ cells, Restim, Bazedoxifene 1000 nM",741
same,CD40L expression (MFI),"[1]; CD8+ cells, Restim, Bazedoxifene 10000 nM",447
same,"CD40L expression, ranking of constructs","[1]; CD8 positive cells, freeze/thaw followed by restimulation with CD3/CD28 beads",highest ER regulated CD40L expression
